Laboratory results taken from patent US20240269276A1 (HARBOUR BIOMED SHANGHAI, published 2024).
Changes are numbered by the printed parent chain. In names and notes the source's numbering stands.

B1: PR005263 (antibody, human IgG1, V domains shown)
VH: QVQLVESGGGVVQPGMSLRLSCAASGFTFSSYGMYWVRQAPGKGQEWVASIRYTGTEKHYADSVKGRFTISRDNSKNTLYLEMNSLRVEDTAVYYCAKNRAIFGVVPDASDIRGQGTMVTVSS
notes: The HC entry is used
B2: PR005872 (antibody, human IgG1, V domains shown)
VH: B1 VH with V106I, A109D
notes: The HC entry is used
B3: PR005875 (antibody, human IgG1, V domains shown)
VH: B1 VH with I102L, V106I
notes: The HC entry is used
B4: PR005878 (antibody, human IgG1, V domains shown)
VH: B1 VH with I102L, V106I, A109D
notes: The HC entry is used
B5: PR006246 (antibody, human IgG1, V domains shown)
VH: B1 VH with T28D, V106I, A109D
notes: The HC entry is used
B6: PR006248 (antibody, human IgG1, V domains shown)
VH: B1 VH with T28D, I102L, V106I, A109D
notes: The HC entry is used
B7: PR001408 (antibody, human IgG1, kappa, L234A L235A, V domains shown)
VH: QVQLVESGGGVVQPGRSLRLSCAASGFTFYSYGMHWVRQTPGKGLEWVALIWYDGSNNYYADSVKGRFTISRDNSKNTLYLQMNSLRAEDTAVYYCATERSSSFYYYYGMDVWGQGTTVTVSS
VL: DIQLTQSPSFLSTSVGDRVTITCRASQGISSYLAWYQQKPGKAPKLLIYAASTLQSGVPSRFSGSGSGTEFTLTISSLQPEDFATYYCQQLNSYPYTFGQGTELEIKR
notes: Anti-CD73 IgG (human IgG1 constant region, human Ig kappa), PTM removed; also called anti-CD73 antibody PR001408; anti-CD73 H2L2 antibody
B8: PR003836 (antibody, human IgG1, kappa, L234A L235A, V domains shown)
VH: QVQLVESGGGVVQPGRSLRLSCAASGFTFSSYDMHWVRQAPGKGLEWVASTWYDASKKYYADSVKGRFTISRDNSKNTLYLQMNSLRAEDTAVYYCAKGGDLLTGPNAFDIWGQGTMVTVSS
VL: DIQMTQSPSTLSASVGDRVTITCRASQSISSWLAWYQQKPGKAPKLLIYKASSLESGVPSRFSGSGSGTEFTLTISSLQPDDFATYYCQQYDNYENTFGQGTKLEIKR
notes: Anti-CD73 IgG (human IgG1 constant region, human Ig kappa), PTM removed; also called anti-CD73 antibody PR003836; anti-CD73 H2L2 antibody
B9: PR000960 (antibody, human IgG1, V domains shown)
VH: B1 VH with T28N, S31N, S50I, R52W, T54D, E57K
notes: Heavy-chain-only antibody (HCAb): human VH fused to human IgG1 Fc; no light chain; also called anti-PD-L1 HCAb antibody
B10: PR002079 (antibody, human IgG1, V domains shown)
VH: B1 VH with S31N, S50I, R52W, T54D, E57K
notes: HCAb; also called PTM variant of PR000960 (N28T)
B11: PR001058 (antibody, human IgG1, V domains shown)
VH: B1 VH with Q1E, M16R, S50I, R52W, T54D, E57K
notes: as for B9
B12: PR001061 (antibody, human IgG1, V domains shown)
VH: EVQLLESGGGVVQPGRSLRLSCAASGFNFSSYGMYWVRQAPGKGQEWVAIIWYDGSRKHYADSVKGRFTISRDNSKNTLYLEMNSLRAEDTAMYYCAKNRAIFGVVPDASDIRGQGTMVTVSS
notes: as for B9
B13: PR001065 (antibody, human IgG1, V domains shown)
VH: B12 VH with L5V, S56T, R57K, A88V, M93V
notes: as for B9

Molecular target: T1, human PD-L1 protein with histidine tag (ACROBiosystems #PD-1-H5258) (human, UniProt Q9NZQ7 19-238)
T1 construct: Bought protein; also called His PD-L1; human PD-L1 proteins; not shown: histidine tag
Assay: BLI (Octet Red96e); His-tagged human PD-L1 captured on HIS1K sensor, antibody at 60 nM; 1:1 fit
Protocol: In this example, affinity determination was performed on the affinity-matured mutants of PR002082 using an Octet Red96e instrument. […] The binding kinetics between the antigen and the antibody was analyzed by the biolayer interferometry (BLI) technique using an Octet molecular interaction analyzer (ForteBio, model: Octet Red96e).
When the affinity of the antigen for the antibody was determined, the rotation speed of the sensor was set at 1000 rpm/min. The 2 HIS1K sensors placed in a column were first equilibrated for 10 min in test buffer, then His PD-L1 was captured with the HIS1K sensor at a capture height of 0.9-1.1 nm, then the HIS1K sensor was equilibrated for 2 min in the test buffer, then the HIS1K sensor was bound to the antigen-binding protein (60 nM and 0 nM) for 3 min, and finally the mixture was dissociated for 15 min. The HIS1K sensor was immersed in a 10 mM glycine solution (pH 1.5) for regeneration to elute the proteins bound to the sensor.
When data analysis was performed using Octet Data Analysis software (Fortebio, version 11.0), the reference signals were subtracted by a single reference mode (reference well), the data were fitted by a “1:1 Local/full fitting” method, and the kinetic parameters of the binding of the antigen to the antibody were calculated to obtain Kₒₙ (1/Ms) values, Kdis (1/s) values and KD (M) values.

T1 sequence (Q9NZQ7 19-238 limits assumed): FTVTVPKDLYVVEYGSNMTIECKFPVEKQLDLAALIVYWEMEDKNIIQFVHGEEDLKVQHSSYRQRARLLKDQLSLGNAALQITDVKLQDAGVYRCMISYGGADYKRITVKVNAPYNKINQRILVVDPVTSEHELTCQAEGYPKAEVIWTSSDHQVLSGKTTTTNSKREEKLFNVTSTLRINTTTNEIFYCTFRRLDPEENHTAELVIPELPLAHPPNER

Row | Binder | Kd [nM] | koff [s⁻¹] | kon [M⁻¹ s⁻¹]
1 | B1 | 1.94 | 0.000227 | 117000
2 | B2 | 0.861 | 0.000187 | 218000
3 | B3 | 1.04 | 0.000179 | 172000
4 | B4 | 0.671 | 0.000121 | 180000
5 | B5 | 0.546 | 0.000164 | 301000
6 | B6 | 0.634 | 0.000115 | 182000

Molecular target: T2, human CD73 on CHO-K1 cells overexpressing human CD73 (human, UniProt P21589 27-549)
T2 construct: whole, on cells; also called CHO-K1-hCD73
T2 sequence (looked up): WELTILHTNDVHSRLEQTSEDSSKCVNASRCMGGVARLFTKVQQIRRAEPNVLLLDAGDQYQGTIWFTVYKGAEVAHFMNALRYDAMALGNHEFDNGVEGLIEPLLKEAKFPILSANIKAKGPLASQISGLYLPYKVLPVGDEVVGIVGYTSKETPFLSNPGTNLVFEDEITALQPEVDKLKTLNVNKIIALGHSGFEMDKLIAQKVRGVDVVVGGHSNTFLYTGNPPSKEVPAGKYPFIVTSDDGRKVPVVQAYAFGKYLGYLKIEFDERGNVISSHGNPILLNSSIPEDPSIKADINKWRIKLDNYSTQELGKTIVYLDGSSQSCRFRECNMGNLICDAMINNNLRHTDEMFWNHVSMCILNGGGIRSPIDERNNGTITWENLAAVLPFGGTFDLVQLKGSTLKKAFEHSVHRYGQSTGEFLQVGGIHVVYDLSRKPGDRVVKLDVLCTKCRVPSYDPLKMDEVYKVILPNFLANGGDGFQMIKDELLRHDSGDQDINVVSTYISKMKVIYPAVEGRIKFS
Assay: flow cytometry on CHO-K1 cells overexpressing human CD73 (CHO-K1-hCD73)
Protocol: In order to investigate the binding activity of the CD73×PD-L1 bispecific antibody to human CD73 and PD-L1, the binding experiment at the cellular level was performed using CHO-K1 cell strains overexpressing human CD73 or PD-L1 (CHO-K1-hCD73 or CHO-K1-hPD-L1). Briefly, the CHO-K1-hCD73 and CHO-K1-hPD-L1 cells were digested and resuspended in an F-12K complete medium, and the cell density was adjusted to 1×10⁶ cells/mL. The cells were seeded in a 96-well V-bottom plate (Corning, #3894) at 100 μL/well, followed by the addition at 100 μL/well and centrifugation at 500 g at 4° C. for 5 min, and then the supernatant was discarded. Antibodies were 3-fold diluted to a maximum final concentration of 50 nM, and a total of 8 concentrations were set. 100 μL of the diluted antibodies was added to the cells, and the cells were incubated away from light at 4° C for 1 h. Thereafter, the cells in each well were rinsed twice with 100 μL of pre-cooled PBS, and centrifuged at 500 g at 4° C. for 5 min, and then the supernatant was discarded. Then 100 μL of a fluorescent secondary antibody (goat anti-human IgG (H+L) secondary antibody, Alexa Fluor® 488 conjugate, Invitrogen, #A11013, diluted at the ratio of 1:1000) was added to each well. The plate was incubated away from light at 4° C. for 30 min. The cells in each well were then rinsed twice with 200 μL of pre-cooled PBS and centrifuged at 500 g at 4° C. for 5 min, and then the supernatant was discarded. Finally, the cells in each well were resuspended in 200 μL of pre-cooled PBS, and the fluorescence signal values were read using a BD FACS CANTOII.

Row | Binder | EC50 [nM]
7 | B7 | 0.342
8 | B8 | 1.1

Molecular target: T3, human PD-L1 on CHO-K1 cells overexpressing human PD-L1 (human, UniProt Q9NZQ7 19-290)
T3 construct: whole, on cells; also called CHO-K1/hPD-L1; CHO-K1-hPD-L1
Assay: flow cytometry on CHO-K1 cells overexpressing human PD-L1 (CHO-K1/hPD-L1) [continued) E]
Protocol: (§1) In the example, in order to study the in vitro binding activity of the PD-L1 antigen-binding protein to human/cynomolgus monkey PD-L1, cell-level binding experiments were performed using CHO-K1 cell strains overexpressing human PD-L1 (CHO-K1/hPD-L1, GenScript, M00543) or CHO-K1 cell strains overexpressing cynomolgus monkey PD-L1 (CHO-K1/cynoPD-L1, GenScript, M00573). Briefly, the PD-L1 cells were digested and resuspended in an F-12K complete medium, and the cell density was adjusted to 1×10⁶ cells/mL. The cells were seeded in a 96-well V-bottom plate (Corning, 3894) at 100 μL/well, followed by the addition of the test antigen-binding proteins serially diluted 5-fold with concentrations that were twice the final concentrations at 100 μL/well. The mixtures were well mixed. The highest final concentration of the antigen-binding proteins was 100 nM. A total of 8 concentrations were set. An isotype antibody hIgG1 iso was used as a control. The cells were incubated away from light at 4° C. for 1 h. Thereafter, the cells in each well were rinsed twice with 100 μL of pre-cooled PBS, and centrifuged at 500 g at 4° C. for 5 min, and then the supernatant was discarded. Then 100 μL of a fluorescent secondary antibody (goat anti-human IgG (H+L) secondary antibody, Alexa Fluor 488 conjugate, Invitrogen, A11013, diluted at the ratio of 1:1000) was added to each well. The plate was incubated away from light at 4° C. for 30 min. The cells in each well were then rinsed twice with 200 μL of pre-cooled PBS and centrifuged at 500 g at 4° C. for 5 min, and then the supernatant was discarded. Finally, a pre-cooled PBS was added at 200 μL/well to resuspend the cells. Fluorescence signal values were read using a BD FACS CANTOII. Fluorescence signal values were read using a flow cytometer BD FACS CANTOII or FACS ACEA, and the data were processed and analyzed using FlowJo v10 (FlowJo, LLC) software. The data were processed and analyzed by plotting using GraphPad Prism 8 software, and binding curves, EC50 values and other parameters were acquired through four-parameter nonlinear fitting.

T3 sequence (Q9NZQ7 19-290): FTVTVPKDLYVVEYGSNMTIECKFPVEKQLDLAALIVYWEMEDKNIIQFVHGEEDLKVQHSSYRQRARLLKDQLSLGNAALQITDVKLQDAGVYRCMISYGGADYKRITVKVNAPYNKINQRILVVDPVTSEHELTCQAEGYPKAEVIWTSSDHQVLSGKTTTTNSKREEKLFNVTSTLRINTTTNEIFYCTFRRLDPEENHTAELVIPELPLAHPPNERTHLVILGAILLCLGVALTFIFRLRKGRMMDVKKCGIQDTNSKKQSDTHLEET

Row | Binder | EC50 [nM] | Maximum MFI [MFI]
9 | B1 | 0.914 | 363000

Molecular target: T3, human PD-L1 on CHO-K1 cells …
Assay: flow cytometry on CHO-K1 cells overexpressing human PD-L1 (CHO-K1/hPD-L1) [continued) F]
Protocol: as §1

Row | Binder | EC50 [nM] | Maximum MFI [MFI]
10 | B4 | 1.08 | 419000
11 | B5 | 0.764 | 396000
12 | B6 | 0.606 | 404000

Molecular target: T3, human PD-L1 on CHO-K1 cells …
Assay: flow cytometry on CHO-K1 cells overexpressing human PD-L1 (CHO-K1/hPD-L1)
Protocol: as §1

Row | Binder | EC50 [nM] | Maximum MFI [MFI]
13 | B9 | 0.79 | 23700
14 | B10 | 0.83 | 24600

Molecular target: T4, cynomolgus monkey PD-L1 on CHO-K1 cells overexpressing cynomolgus monkey PD-L1 (cynomolgus monkey, UniProt G7PSE7 19-290)
T4 construct: also called CHO-K1/cynoPD-L1; GenScript M00573
Assay: flow cytometry on CHO-K1 cells overexpressing cynomolgus monkey PD-L1 (CHO-K1/cynoPD-L1)
Protocol: as §1

T4 sequence (G7PSE7 entry or part of it limits assumed): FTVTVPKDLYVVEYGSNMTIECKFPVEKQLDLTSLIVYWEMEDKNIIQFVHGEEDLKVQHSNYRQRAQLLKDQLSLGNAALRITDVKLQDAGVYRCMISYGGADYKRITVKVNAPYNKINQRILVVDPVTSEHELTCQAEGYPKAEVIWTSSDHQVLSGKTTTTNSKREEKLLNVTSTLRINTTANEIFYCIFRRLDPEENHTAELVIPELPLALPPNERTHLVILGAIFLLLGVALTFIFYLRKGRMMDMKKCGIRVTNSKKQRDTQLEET

Row | Binder | EC50 [nM] | Maximum MFI [MFI]
15 | B1 | 1.19 | 11700
16 | B2 | 0.733 | 11800
17 | B3 | 0.774 | 11500
18 | B4 | 0.894 | 11700
19 | B5 | 0.736 | 11600
20 | B6 | 0.717 | 11500

Molecular target: T4, cynomolgus monkey PD-L1 on CHO-K1 cells …
Assay: as above
Remark: another data set of the same source
Protocol: as §1

Row | Binder | EC50 [nM] | Maximum MFI [MFI]
21 | B9 | 0.421 | 8440
22 | B11 | 0.4 | 8480
23 | B12 | 0.4 | 8840
24 | B13 | 0.7 | 8780
25 | B10 | 0.376 | –

Molecular target: T3, human PD-L1 on CHO-K1 cells …
Assay: flow cytometry on CHO-K1 cells overexpressing human PD-L1 (CHO-K1/hPD-L1)
Remark: another data set of the same source
Protocol: as §1

Row | Binder | EC50 [nM] | Maximum MFI [MFI]
26 | B9 | 3 | 3080
27 | B11 | 3.33 | –
28 | B12 | 2.31 | 3090
29 | B13 | 2.67 | 3000

Molecular target: T3, human PD-L1 on CHO-K1 cells …
Assay: flow cytometry on CHO-K1 cells overexpressing human PD-L1 (CHO-K1/hPD-L1) [continued) D]
Protocol: as §1

Row | Binder | EC50 [nM] | Maximum MFI [MFI]
30 | B2 | 0.787 | 385000
31 | B3 | 0.974 | 372000
32 | B4 | 0.944 | 379000
